Assay results as given in US20070065875A1 (INNATE PHARMA S A, published 2007).

Experiments:
[1] = target: T1, NTB-A (NK-T-B-antigen) (human, UniProt Q96DU3 22-332); assay: NTB-A immunoprecipitates from 1% digitonin NK cell lysates probed by western blot
T1 construct: Full-length surface glycoprotein; Native cells may also carry the allelic isoform with an extra Ala at position 266; also called KALI cDNA product; MA127-reactive molecule
T1 sequence: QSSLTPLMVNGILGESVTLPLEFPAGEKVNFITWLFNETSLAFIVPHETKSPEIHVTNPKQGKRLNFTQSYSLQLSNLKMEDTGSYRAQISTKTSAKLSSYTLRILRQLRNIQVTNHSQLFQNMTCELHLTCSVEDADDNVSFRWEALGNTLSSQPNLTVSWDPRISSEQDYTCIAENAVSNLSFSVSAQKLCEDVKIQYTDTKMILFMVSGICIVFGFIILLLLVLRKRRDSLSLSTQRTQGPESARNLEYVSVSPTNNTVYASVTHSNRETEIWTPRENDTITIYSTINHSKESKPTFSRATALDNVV
Protocol: (§1) NK cells (10⁸) were stimulated or not with 100 M sodium pervanadate (28). 1% NP-40 or 1% digitonin cell lysates were immunoprecipitated with Sepharose-PA (Amersham Pharmacia Biotech)-coupled mAbs. Samples were analyzed in discontinuous SDS-PAGE, transferred to Immobilon P (Millipore), and probed with: (a) anti-phosphotyrosine mAb (PY20-HRPO; Transduction Laboratories); (b) anti-SHP-2 or anti-SHP-1 mAbs (PTP1D and PTP1C, respectively; Transduction Laboratories) followed by rabbit anti-mouse-HRPO (Dako); (c) anti-SH2D1A rabbit anti-serum (produced by Eurogentec S.A; reference 28) followed by donkey anti-rabbit-HRPO (Amersham Pharmacia Biotech). The Renaissance Chemiluminescence Kit (NEN Life Science Products) was used for detection. Putative NTB-A association with known signal transducing molecules was analyzed by probing NTB-A immunoprecipitates, obtained from 1% digitonin cell lysates, with anti-FcRI (provided by E. Vivier, Marseille, France), anti-DAP12 (SI-28; reference 10), and anti-LAT (UBI; Upstate Biotechnology) antisera or with anti-CD3mAb (TIA/2; Immunotech).

[2] = target: T1, NTB-A (NK-T-B-antigen); assay: NTB-A immunoprecipitates from 1% digitonin NK cell lysates probed with anti-LAT antiserum
Protocol: as §1

B1: FcεRIγ (other, human, UniProt P30273 19-86, looked up)
chain: LGEPQLCYILDAILFLYGIVLTLLYCRLKIQVRKAAITSYEKSDGVYTGLSTRNQETYETLKHEKPPQ
binding result [1]: no binding

B2: KARAP/DAP12 (other, human, UniProt O43914 22-113, looked up)
chain: LRPVQAQAQSDCSCSTVSPGVLAGIVMGDLVLTVLIALAVYFLGRLVPRGRGAAEAATRKQRITETESPYQELQGQRSDVYSDLNTQRPYYK
binding result [1]: no binding

B3: linker for activation of T cells (LAT) (other, human, UniProt O43561 1-262, looked up)
chain: MEEAILVPCVLGLLLLPILAMLMALCVHCHRLPGSYDSTSSDSLYPRGIQFKRPHTVAPWPPAYPPVTSYPPLSQPDLLPIPRSPQPLGGSHRTPSSRRDSDGANSVASYENEGASGIRGAQAGWGVWGPSWTRLTPVSLPPEPACEDADEDEDDYHNPGYLVVLPDSTPATSTAAPSAPALSTPGIRDSAFSMESIDDYVNVPESGESAEASLDGSREYVNVSQELHPGAAKTEPAALSSQEAEEVEEEGAPDYENLQELN
binding result [2]: no binding
